T1: pig CD47 (pig, UniProt Q9GKE8 19-303)
T1 chain: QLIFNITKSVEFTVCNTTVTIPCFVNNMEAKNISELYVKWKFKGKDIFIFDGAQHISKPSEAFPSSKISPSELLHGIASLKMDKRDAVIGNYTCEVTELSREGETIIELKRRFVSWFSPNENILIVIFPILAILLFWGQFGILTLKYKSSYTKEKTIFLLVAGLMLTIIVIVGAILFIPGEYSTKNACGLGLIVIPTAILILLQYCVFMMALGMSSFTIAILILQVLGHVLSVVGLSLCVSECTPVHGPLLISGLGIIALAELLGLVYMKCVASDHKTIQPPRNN

T2: rat CD47 (rat, UniProt P97829 19-303)
T2 chain: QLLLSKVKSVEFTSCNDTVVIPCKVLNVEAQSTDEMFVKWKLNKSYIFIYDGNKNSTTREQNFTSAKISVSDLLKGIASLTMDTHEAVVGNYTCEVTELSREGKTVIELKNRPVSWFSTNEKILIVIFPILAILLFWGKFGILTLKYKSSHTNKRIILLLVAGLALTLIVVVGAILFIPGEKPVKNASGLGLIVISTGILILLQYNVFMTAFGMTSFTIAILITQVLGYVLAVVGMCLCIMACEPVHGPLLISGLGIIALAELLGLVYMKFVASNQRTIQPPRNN

T3: mouse CD47 (mouse, UniProt Q61735 19-303)
T3 chain: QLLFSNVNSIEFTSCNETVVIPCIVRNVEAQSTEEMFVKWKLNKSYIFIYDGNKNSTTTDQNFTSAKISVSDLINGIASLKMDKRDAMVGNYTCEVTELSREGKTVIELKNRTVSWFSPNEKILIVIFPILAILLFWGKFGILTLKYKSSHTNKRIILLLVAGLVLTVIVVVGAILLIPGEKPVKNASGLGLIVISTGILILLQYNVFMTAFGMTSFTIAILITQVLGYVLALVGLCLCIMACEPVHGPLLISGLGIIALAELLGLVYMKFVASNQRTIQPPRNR


Assays:
pig CD47 = target: T1, pig CD47; experiment: FACS binding; porcine RBCs
human CD47 = human CD47 (human, UniProt Q08722 19-323); experiment: FACS binding; human RBCs
rat CD47 = target: T2, rat CD47; experiment: FACS binding; rat RBCs
mouse CD47 = target: T3, mouse CD47; experiment: FACS binding; mouse RBCs

human CD47, sequence (Q08722 19-323): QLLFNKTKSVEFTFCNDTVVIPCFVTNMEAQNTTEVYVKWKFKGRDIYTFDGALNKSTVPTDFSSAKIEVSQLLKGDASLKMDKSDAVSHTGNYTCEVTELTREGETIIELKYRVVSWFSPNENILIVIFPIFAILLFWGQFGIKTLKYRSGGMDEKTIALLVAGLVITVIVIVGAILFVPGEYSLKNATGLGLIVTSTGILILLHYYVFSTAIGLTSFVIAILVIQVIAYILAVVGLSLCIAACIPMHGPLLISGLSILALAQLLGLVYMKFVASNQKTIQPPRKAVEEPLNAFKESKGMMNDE

| EC50 (pig CD47) [µg/mL] | EC50 (human CD47) [µg/mL] | EC50 (rat CD47) [µg/mL] | EC50 (mouse CD47) [µg/mL] | Binder |
| --- | --- | --- | --- | --- |
| 0.0309 | 0.216 | 0.258 | 0.265 | Clone 1.1 (hum01 IgG1 N297Q) (antibody) heavy: QVQLQESGPGLVKPSQTLSLTCTVSGYTFTNYYVFWVRQARGQRLEWIGDINPVNGDTNFNEKFKNRVTISADKSISTAYLQWSSLKASDTAMYYCARGGYTMDYWGQGTLVTVSSASTKGPSVFPLAPSSKSTSGGTAALGCLVKDYFPEPVTVSWNSGALTSGVHTFPAVLQSSGLYSLSSVVTVPSSSLGTQTYICNVNHKPSNTKVDKKVEPKSCDKTHTCPPCPAPELLGGPSVFLFPPKPKDTLMISRTPEVTCVVVDVSHEDPEVKFNWYVDGVEVHNAKTKPREEQYQSTYRVVSVLTVLHQDWLNGKEYKCKVSNKALPAPIEKTISKAKGQPREPQVYTLPPSR light: DIVMTQTPLSLPVTPGEPASISCRSSQSLVHSNGNTYLHWYQQKPGKAPKLLIYKVSYRFSGVPDRFSGSGSGTDFTLKISRVEAEDVGVYYCSQNTHVPRTFGQGTKVEIKRTVAAPSVFIFPPSDEQLKSGTASVVCLLNNFYPREAKVQWKVDNALQSGNSQESVTEQDSKDSTYSLSSTLTLSKADYEKHKVYACEVTHQGLSSPVTKSFNRGEC |
| 0.0152 | 0.12 | 0.0461 | 0.0418 | Clone 13 (pVxK7b-037-hum13-LC / pVxK7b-037-hum13-HC) (antibody) heavy: not shown light: DIVMTQTPLSLPVTPGEPASISCRSSQSLVHSNGNTYLHWYQQKPGKAPKLLIYKVSYRFSGVPDRFSGSGSGTDFTLKISRVEAEDVGVYYCSQNTHVPRTFGQGTKVEIKRTVAAPSVFIFPPSDEQLKSGTASVVCLLNNFYPREAKVQWKVDNALQSGNSQESVTEQDSKDSTYSLSSTLTLSKADYEKHKVYACEVTHQGLSSPVTKSFNRGEC |
| 0.031 | 0.163 | 0.0835 | 0.0673 | Clone 13.1 (hum13 IgG1 N297Q) (antibody) heavy: EVQLVQSGAEVKKPGESLRISCKGSGYTFTNYYVFWIRQSPSRGLEWLGDINPVNGDTNFNEKFKNRVTITADKSTSTAYMELSSLRSEDTAVYYCARGGYTMDYWGQGTLVTVSSASTKGPSVFPLAPSSKSTSGGTAALGCLVKDYFPEPVTVSWNSGALTSGVHTFPAVLQSSGLYSLSSVVTVPSSSLGTQTYICNVNHKPSNTKVDKKVEPKSCDKTHTCPPCPAPELLGGPSVFLFPPKPKDTLMISRTPEVTCVVVDVSHEDPEVKFNWYVDGVEVHNAKTKPREEQYQSTYRVVSVLTVLHQDWLNGKEYKCKVSNKALPAPIEKTISKAKGQPREPQVYTLPPSR light: DIVMTQTPLSLPVTPGEPASISCRSSQSLVHSNGNTYLHWYQQKPGKAPKLLIYKVSYRFSGVPDRFSGSGSGTDFTLKISRVEAEDVGVYYCSQNTHVPRTFGQGTKVEIKRTVAAPSVFIFPPSDEQLKSGTASVVCLLNNFYPREAKVQWKVDNALQSGNSQESVTEQDSKDSTYSLSSTLTLSKADYEKHKVYACEVTHQGLSSPVTKSFNRGEC |
| 0.014 | 0.184 | 0.0479 | 0.0657 | Clone 1 (pVxK7b-037-hum01-LC / pVxK7b-037-hum01-HC) (antibody) heavy: not shown light: DIVMTQTPLSLPVTPGEPASISCRSSQSLVHSNGNTYLHWYQQKPGKAPKLLIYKVSYRFSGVPDRFSGSGSGTDFTLKISRVEAEDVGVYYCSQNTHVPRTFGQGTKVEIKRTVAAPSVFIFPPSDEQLKSGTASVVCLLNNFYPREAKVQWKVDNALQSGNSQESVTEQDSKDSTYSLSSTLTLSKADYEKHKVYACEVTHQGLSSPVTKSFNRGEC |
